The source of these data is patent publication US20130330362A1 (HEFEI TAIRUI BIOTECHNOLOGY, published 2013).

By Kd is commonly meant the concentration at which binding is half-saturated. The low end stands for higher affinity, the high end for lower affinity.

The assay deals with T1, Epidermal Growth Factor Receptor (EGFR) protein (UniProt P00533 25-1210, limits assumed).
T1 construct: Bought protein; also called EGFR proteins; antigen EGFR
As to the kind of experiment: SPR, Biacore3000, CM5 chip, HBS-EP pH 7.4, mean of three runs. A general note: Surface plasmon resonance follows binding to a sensor surface in real time, without labels.

Procedure: The binding affinity between antibody and EGFR was assayed with Biacore3000 equipment. The EGFR proteins diluted with 10 mmol/L NaAc and having different pH (4.0, 4.5, 5.0 and 5.5) were formulated, and were pre-concentrated on CM5 chip to select the NaAc diluted protein with optimum pH. […] The binding affinities were computed with the software attached by Biacore3000.

B1: anti-EGFR humanized antibody L4-H3 (antibody, human IgG1, kappa, V domains shown)
VH: VKLLEQSGAEVKKPGASVKVSCKASGFSLTNYGVHWVRQAPGQRLEWMGVIWSGGNTDYNTPFTSRVTITRDTSATTAYMGLSSLRPEDTAVYYCARALTYYDYEFAYWGQGTLVTVSS
VL: ELVMTQSPSSLSASVGDRVNIACRASQSIGTNIHWYQQKPGKAPRLLIKYASESISGVPSRFSGSGSGTDFTLTISSLQPEDFAIYYCQQNNNWPTTFGGGTKVEIKR
notes: also called antibody of the present invention; the antibody
B1 showed a Kd of 2.75 nM.
